Measured values as given in US20230287118A1 (published 2023).

Tests used:
human CD20 [1] = target: T1, human CD20 (human, UniProt P11836 1-297); assay: flow cytometry on CD20-expressing WSU DLCL2 cells, PE anti-human Fc secondary antibody
T1 construct: whole, on cells
T1 sequence (looked up): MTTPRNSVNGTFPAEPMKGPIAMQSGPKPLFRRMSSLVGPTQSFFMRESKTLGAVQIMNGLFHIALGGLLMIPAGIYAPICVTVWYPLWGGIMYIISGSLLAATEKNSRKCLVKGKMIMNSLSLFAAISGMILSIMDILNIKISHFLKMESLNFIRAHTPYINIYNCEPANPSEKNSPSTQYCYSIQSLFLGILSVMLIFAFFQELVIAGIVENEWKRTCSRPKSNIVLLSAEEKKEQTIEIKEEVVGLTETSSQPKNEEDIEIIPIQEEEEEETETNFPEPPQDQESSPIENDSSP
Procedure: (§1) The binding of the anti-CD3/anti-CD20 TCB antibody shown as molecule “B” above was tested on human CD20-expressing Diffuse Large-Cell B Cell Lymphoma (DLBCL) cell line (WSU DLCL2, 0.5-1×10⁶ CD20 binding sites) and CD3-expressing immortalized T lymphocyte line (Jurkat). Briefly, cells were harvested, counted, checked for viability and resuspended at 1.5×10⁶ cells/ml in FACS buffer (PBS 0.1% BSA).
(§2) Binding curves and the EC50 values related to binding were calculated using GraphPadPrism5.

human CD20 [2] = target: T1, human CD20; assay: cell-based or functional assay
human CD20 [3] = target: T1, human CD20; assay: cell-based or functional assay; remark: listed apart in the source
cynomolgus monkey CD20 = target: T2, cynomolgus monkey CD20 (cynomolgus monkey, UniProt M4ZHZ6 1-297); assay: flow cytometry, AlexaFluor488-labelled TCB on CD20-expressing B cells among cynomolgus monkey PBMCs
T2 construct: whole, on cells; also called cynomolgus CD20
T2 sequence: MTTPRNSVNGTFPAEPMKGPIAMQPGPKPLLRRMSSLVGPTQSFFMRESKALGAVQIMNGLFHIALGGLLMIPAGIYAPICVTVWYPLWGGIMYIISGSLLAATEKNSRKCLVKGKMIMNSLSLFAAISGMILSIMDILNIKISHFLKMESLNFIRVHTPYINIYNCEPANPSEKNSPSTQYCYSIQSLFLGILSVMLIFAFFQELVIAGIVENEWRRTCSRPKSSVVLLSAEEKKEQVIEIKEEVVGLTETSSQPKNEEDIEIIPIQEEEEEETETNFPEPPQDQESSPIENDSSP
Procedure: (§3) The crossreactivity of the anti-CD3/anti-CD20 TCB antibody shown as molecule “B” above was evaluated by assessing binding to human and cynomolgus monkey CD20-expressing B cells and CD3-expressing CD4 and CD8 T cells. Briefly, heparinized human and cynomolgus monkey blood from healthy donors was used to isolate PBMCs by density centrifugation. Isolated PBMCs were counted, checked for viability and resuspended at 4×10⁶ cells/ml in FACS buffer (100 μl PBS 0.1% BSA). 100 μl of cell suspension (containing 0.4×10⁶ cells) were plated into 96-well_U-bottom plate and centrifuged (420×g, 4 min). After removal of the supernatants, PBMCs were incubated for 30 min at 4° C. with increasing concentrations of the CD20 TCB-AlexaFlour488 (200 pM-200 nM), washed twice with cold PBS 0.1% BSA, re-incubated for further 30 min at 4° C. with human/cynomolgus cross-reactive antibodies: anti-CD19 (in house, clone 8B8)-AlexaFluor647, anti-CD4 (BD, #552838, clone L200)-PerCPCy5.5 and anti-CD8 (BD, #555367, clone RPA-T8)-PE.

human CD3 [4] = target: T3, human CD3 (human, UniProt P07766 23-207); assay: cell-based or functional assay
human CD20 [5] = target: T1, human CD20; assay: cell-based or functional assay; remark: listed apart in the source
human CD20 [6] = target: T1, human CD20; assay: cell-based or functional assay; remark: listed apart in the source
human CD3 [7] = target: T3, human CD3; assay: flow cytometry on CD3-expressing Jurkat cells, PE anti-human Fc secondary antibody
Procedure: as §1, §2

human CD20 [8] = target: T1, human CD20; assay: flow cytometry, AlexaFluor488-labelled TCB on CD20-expressing B cells among human PBMCs
Procedure: as §3

EC50 (human CD20 [1]): 980 pM
EC50 of tumor cell lysis (LDH release), Z138 cells + human PBMCs, 21-24 h, panel A (human CD20 [2]): 2.18 pM
EC50 of tumor cell lysis (LDH release), Z138 cells + human PBMCs, 21-24 h, panel B (human CD20 [2]): 0.96 pM
EC50 24 h of tumor lysis, Ocly-18 cells (human CD20 [3]): 0.3 pM
EC50 24 h of tumor lysis, SU-DHL-5 cells (human CD20 [3]): 1.2 pM
EC50 24 h of tumor lysis, SU-DHL-8 cells (human CD20 [3]): 0.5 pM
EC50 24 h of tumor lysis, U2932 cells (human CD20 [3]): 0.9 pM
EC50 (cynomolgus monkey CD20): 3300 pM
EC50 of CD3 activation, Jurkat-NFAT reporter cells co-cultured with Z138 cells (luminescence, 6 h) (human CD3 [4]): 29 pM
EC50 24 h of CD4 T cell activation, Z138 cells (average of 3 donors) (human CD20 [5]): 1.2 pM
EC50 24 h of CD8 T cell activation, Z138 cells (average of 3 donors) (human CD20 [5]): 2.2 pM
EC50 24 h of tumor lysis, Z138 cells (average of 3 donors) (human CD20 [5]): 1.6 pM
EC50 24 h of B cell depletion in normal human whole blood (human CD20 [6]): 13.2 pM
EC50 (human CD3 [7]): ~12500 pM
EC50 (human CD20 [8]): 4800 pM
B1: anti-CD20/anti-CD3 TCB molecule B: "2+1 IgG CrossFab, inverted" with charge modifications (VH/VL exchange in CD3 binder, charge modification in CD20 binders) (bispecific antibody)
heavy 1: not shown
heavy 2: QVQLVQSGAEVKKPGSSVKVSCKASGYAFSYSWINWVRQAPGQGLEWMGRIFPGDGDTDYNGKFKGRVTITADKSTSTAYMELSSLRSEDTAVYYCARNVFDGYWLVYWGQGTLVTVSSASTKGPSVFPLAPSSKSTSGGTAALGCLVEDYFPEPVTVSWNSGALTSGVHTFPAVLQSSGLYSLSSVVTVPSSSLGTQTYICNVNHKPSNTKVDEKVEPKSCDKTHTCPPCPAPEAAGGPSVFLFPPKPKDTLMISRTPEVTCVVVDVSHEDPEVKFNWYVDGVEVHNAKTKPREEQYNSTYRVVSVLTVLHQDWLNGKEYKCKVSNKALGAPIEKTISKAKGQPREPQVCTLPPSRDELTKNQVSLSCAVKGFYPSDIAVEWESNGQPENNYKTTPPVLDSDGSFFLVSKLTVDKSRWQQGNVFSCSVMHEALHNHYTQKSLSLSP
light 1: DIVMTQTPLSLPVTPGEPASISCRSSKSLLHSNGITYLYWYLQKPGQSPQLLIYQMSNLVSGVPDRFSGSGSGTDFTLKISRVEAEDVGVYYCAQNLELPYTFGGGTKVEIKRTVAAPSVFIFPPSDRKLKSGTASVVCLLNNFYPREAKVQWKVDNALQSGNSQESVTEQDSKDSTYSLSSTLTLSKADYEKHKVYACEVTHQGLSSPVTKSFNRGEC
light 2: EVQLLESGGGLVQPGGSLRLSCAASGFTFSTYAMNWVRQAPGKGLEWVSRIRSKYNNYATYYADSVKGRFTISRDDSKNTLYLQMNSLRAEDTAVYYCVRHGNFGNSYVSWFAYWGQGTLVTVSSASVAAPSVFIFPPSDEQLKSGTASVVCLLNNFYPREAKVQWKVDNALQSGNSQESVTEQDSKDSTYSLSSTLTLSKADYEKHKVYACEVTHQGLSSPVTKSFNRGEC
notes: Bivalent for CD20, monovalent for CD3; also called CD20 TCB; CD20 TCB_2+1_with charges, inverted
